Data as given in patent US12533321B2, “Polypeptide formulations for oral delivery” (Bhami's Research Laboratory, Pvt. Ltd., priority 2022, dated 2026).
Read-outs that look alike come from different tables or passages of the source.

Experiments:
[1] = Pharmacokinetics of Semaglutide in albumin crystal sugar truffle shell vs SC, plasma Semaglutide by ELISA; format: in vivo, Wistar Rats; conditions: 0.1 mg
Method: The semaglutide was processed to prepare albumin microparticles containing semaglutide according to the procedure mentioned under Example 5. The microparticle of albumin crystals containing semaglutide was then lyophilized after washing with cold isopropanol.
Pharmacokinetic analysis was conducted in male Wistar Rats weighing 150 to 250 grams for 1 day. Rats in the oral treatment group was fasted overnight. […] The time of dosage of each animal was noted. […] An antibody, anti-Semaglutide was pre-coated onto a 96-well plate. […] The intensity of the yellow color is proportional to the Semaglutide amount bound on the plate.

[2] = minipig, in vivo, iv
Method: Pharmacokinetic analysis was conducted in Female Minipigs weighing 12±1 kg for 2 days. Pigs in the treatment group was fasted overnight prior to the test sample administration. All the test animals in the treatment groups were administered with respective test formulation to the pre-designated animals. The time of dosage of each animal was noted. Blood samples were collected at aforementioned time points 0 min, 5 min, 30 min 1 hr, 4 hrs, 12 hrs, 24 hrs, and 48 hrs into an EDTA-blood collection tubes for the separation of plasma to determine insulin levels by ELISA. Plasma samples collected at different time points were analyzed by ELISA kit according to ABBEXA protocol. This kit is based on sandwich enzyme-linked immuno-sorbent assay technology. An antibody, anti-insulin was pre-coated onto a 96-well plate. Standards, test samples, and biotin-conjugated reagent were added to the wells and incubated. The HRP-conjugated reagent was then added, and the whole plate was incubated. Unbound conjugates were removed using wash buffer at each stage. TMB substrate was used to quantify the HRP enzymatic reaction. After TMB substrate was added, only wells that contain sufficient INS will produce a blue colored product, which then changes to yellow after adding the acidic stop solution. The intensity of the yellow colour is proportional to the INS amount bound on the plate. The Optical Density (OD) was measured spectrophotometrically at 450 nm in a microplate reader, from which the concentration of INS can be calculated.
(§1) Insulin was analyzed in plasma using a specific enzyme linked immunosorbent assay (ELISA). Pharmacokinetic endpoints were determined using noncompartmental methods using PK Solutions software. AUC was approximated using the trapezoidal rule on the observed concentrations. C max for each Insulin dose was derived as the maximum of all valid concentrations, and t max was then determined as the corresponding time point to C max. The terminal elimination rate constant (λ z) was estimated by log-linear regression on the terminal part of the concentration-time curve, and t ½ was then calculated as t ½=ln 2/λz.

[3] = minipig, in vivo, iv; remark: listed apart in the source
Method: Pharmacokinetic analysis was conducted in Female Minipigs weighing 12±1 kg for 2 days. Pigs in the treatment group was fasted overnight prior to the test sample administration. All the test animals in the treatment groups were administered with respective test formulation to the pre-designated animals. The time of dosage of each animal was noted. Blood samples were collected at aforementioned time points 0 min, 5 min, 30 min, 1 hr, 4 hrs, 12 hrs, 24 hrs, and 48 hrs into an EDTA-blood collection tubes for the separation of plasma to determine insulin levels by ELISA. Plasma samples collected at different time points were analyzed by ELISA kit according to ABBEXA protocol. This kit is based on sandwich enzyme-linked immuno-sorbent assay technology. An antibody, anti-insulin was pre-coated onto a 96-well plate. Standards, test samples, and biotin-conjugated reagent were added to the wells and incubated. The HRP-conjugated reagent was then added, and the whole plate was incubated. Unbound conjugates were removed using wash buffer at each stage. TMB substrate was used to quantify the HRP enzymatic reaction. After TMB substrate was added, only wells that contain sufficient INS will produce a blue colored product, which then changes to yellow after adding the acidic stop solution. The intensity of the yellow colour is proportional to the INS amount bound on the plate. The Optical Density (OD) was measured spectrophotometrically at 450 nm in a microplate reader, from which the concentration of INS can be calculated.
as §1

Question: Which “Mean Semaglutide levels” value ([1]; 0 h, SC) does the source give for `CC[C@H](C)[C@H](NC(=O)[C@H](Cc1ccccc1)NC(=O)[C@H](CCC(=O)O)NC(=O)[C@H](CCCCNC(=O)COCCOCCNC(=O)COCCOCCNC(=O)CC[C@H](NC(=O)CCCCCCCCCCCCCCCCC(=O)O)C(=O)O)NC(=O)[C@H](C)NC(=O)[C@H](C)NC(=O)[C@H](CCC(N)=O)NC(=O)CNC(=O)[C@H](CCC(=O)O)NC(=O)[C@H](CC(C)C)NC(=O)[C@H](Cc1ccc(O)cc1)NC(=O)[C@H](CO)NC(=O)[C@H](CO)NC(=O)[C@@H](NC(=O)[C@H](CC(=O)O)NC(=O)[C@H](CO)NC(=O)[C@@H](NC(=O)[C@H](Cc1ccccc1)NC(=O)[C@@H](NC(=O)CNC(=O)[C@H](CCC(=O)O)NC(=O)C(C)(C)NC(=O)[C@@H](N)Cc1cnc[nH]1)[C@@H](C)O)[C@@H](C)O)C(C)C)C(=O)N[C@@H](C)C(=O)N[C@@H](Cc1c[nH]c2ccccc12)C(=O)N[C@@H](CC(C)C)C(=O)N[C@H](C(=O)N[C@@H](CCCNC(=N)N)C(=O)NCC(=O)N[C@@H](CCCNC(=N)N)C(=O)NCC(=O)O)C(C)C` [Semaglutide] here?
Answer: Its value is 0.00 ± 0.00 ng/mL.

Question: And the “AUMC 0-inf_obs” value ([1]; SC)?
Answer: Its value is 29775275.74 ng/ml * h^2.

Question: And the “AUMC 0-inf_pred” value ([1]; SC)?
Answer: The value was 29434343.61 ng/ml * h^2.

Question: What about the “AUMC 0-t” value ([1]; SC) of the same compound?
Answer: The value was 2165980.669 ng/ml * h^2.

Question: And the “AUMC 0-t/0-inf_obs” value ([1]; SC)?
Answer: Its value is 0.07274.

Question: And the “AUMC 0-t/0-inf_pred” value ([1]; SC)?
Answer: Its value is 0.07359.

Question: And the “AUMC t-inf_obs” value ([1]; SC)?
Answer: The value was 27609295.07 ng/ml * h^2.

Question: What about the “AUMC t-inf_pred” value ([1]; SC) of the same compound?
Answer: Its value is 27268362.94 ng/ml * h^2.

Question: And the Clast_obs ([1]; SC)?
Answer: The Clast_obs was 6808.65 ng/mL.

Question: And the Clast_pred ([1]; SC)?
Answer: Its Clast_pred is 6725 ng/mL.

Question: What about the Lambda_z ([1]; SC) of the same compound?
Answer: Its Lambda_z is 0.01894 h⁻¹.

Question: And the Tlag ([1]; SC)?
Answer: Its Tlag is 0 h.

Question: What about the Tlast ([1]; SC) of the same compound?
Answer: Its Tlast is 24 h.

Question: What about the level at 0.25 h ([1]; male, Wistar, rat, plasma, 0.25 h, SC, read-out: Mean Semaglutide levels) of the same compound?
Answer: The level at 0.25 h was 11900 ± 2420 ng/mL.

Question: What about the level at 0.5 h ([1]; male, Wistar, rat, plasma, 0.5 h, SC, read-out: Mean Semaglutide levels) of the same compound?
Answer: Its level at 0.5 h is 11200 ± 1470 ng/mL.

Question: What about the level at 1 h ([1]; male, Wistar, rat, plasma, 1 h, SC, read-out: Mean Semaglutide levels) of the same compound?
Answer: The level at 1 h was 13100 ± 1670 ng/mL.

Question: What about the level at 2 h ([1]; male, Wistar, rat, plasma, 2 h, SC, read-out: Mean Semaglutide levels) of the same compound?
Answer: Its level at 2 h is 12600 ± 2930 ng/mL.

Question: And the level at 4 h ([1]; male, Wistar, rat, plasma, 4 h, SC, read-out: Mean Semaglutide levels)?
Answer: Its level at 4 h is 10300 ± 2790 ng/mL.

Question: What about the level at 8 h ([1]; male, Wistar, rat, plasma, 8 h, SC, read-out: Mean Semaglutide levels) of the same compound?
Answer: Its level at 8 h is 8560 ± 1420 ng/mL.

Question: What about the level at 24 h ([1]; male, Wistar, rat, plasma, 24 h, SC, read-out: Mean Semaglutide levels) of the same compound?
Answer: The level at 24 h was 6810 ± 1730 ng/mL.

Question: And the MRT inf ([1]; rat, in vivo, sc, SC, read-out: MRT 0-inf_obs)?
Answer: Its MRT inf is 52.6 h.

Question: And the MRT inf ([1]; rat, in vivo, sc, SC, read-out: MRT 0-inf_pred)?
Answer: Its MRT inf is 52.4 h.

Question: And the MRT last ([1]; rat, in vivo, sc, read-out: MRT 0-t)?
Answer: Its MRT last is 10.5 h.

Question: With “Human Insulin R: Humulin R (insulin human recombinant) U-100, marketed liquid formulation, given IV” as the compound, how does the Cl_obs [2] read?
Answer: The Cl_obs was 0.000 (mg)/(mU/L)/h.

Question: And the Cl_pred [2]?
Answer: The Cl_pred was 0.000 (mg)/(mU/L)/h.

Question: And the “AUC 0-inf_obs” value ([2]; 0.347 mg)?
Answer: Its value is 803.478 mU/L * h.

Question: What about the “AUC 0-inf_pred” value ([2]; 0.347 mg) of the same compound?
Answer: Its value is 800.145 mU/L * h.

Question: What about the “AUC t-inf_obs” value ([2]; 0.347 mg) of the same compound?
Answer: The value was 20.830 mU/L * h.

Question: And the “AUC t-inf_pred” value ([2]; 0.347 mg)?
Answer: The value was 17.497 mU/L * h.

Question: What about the “AUC(0-t)” value ([2]; 0.347 mg) of the same compound?
Answer: Its value is 782.648 mU/L * h.

Question: What about the C0 ([2]; 0.347 mg) of the same compound?
Answer: Its C0 is 105.903 mU/L.

Question: And the Cmax ([2]; 0.347 mg)?
Answer: The Cmax was 998.596 mU/L.

Question: And the “MRT 0-inf_obs” value ([2]; 0.347 mg)?
Answer: Its value is 1.532 h.

Question: What about the “MRT 0-inf_pred” value ([2]; 0.347 mg) of the same compound?
Answer: The value was 1.471 h.

Question: And the “MRT 0-t” value ([2]; 0.347 mg)?
Answer: Its value is 1.143 h.

Question: What about the Tmax ([2]; 0.347 mg) of the same compound?
Answer: The Tmax was 4.8 min.

Question: What about the Vss_obs ([2]; 0.347 mg) of the same compound?
Answer: Its Vss_obs is 0.001 (mg)/(mU/L).

Question: What about the Vss_pred ([2]; 0.347 mg) of the same compound?
Answer: The Vss_pred was 0.001 (mg)/(mU/L).

Question: What about the Vz_obs ([2]; 0.347 mg) of the same compound?
Answer: Its Vz_obs is 0.002 (mg)/(mU/L).

Question: And the Vz_pred ([2]; 0.347 mg)?
Answer: Its Vz_pred is 0.002 (mg)/(mU/L).

Question: What about the t½ ([2]; 0.347 mg) of the same compound?
Answer: The t½ was 2.873 h.

Question: And the Cl_obs [3]?
Answer: Its Cl_obs is 0.000 (mg)/(mU/L)/h.

Question: And the Cl_pred [3]?
Answer: Its Cl_pred is 0.000 (mg)/(mU/L)/h.

Question: And the “AUC 0-inf_obs” value ([3]; 0.347 mg)?
Answer: Its value is 803.478 mU/L * h.

Question: And the “AUC 0-inf_pred” value ([3]; 0.347 mg)?
Answer: The value was 800.145 mU/L * h.

Question: What about the “AUC t-inf_obs” value ([3]; 0.347 mg) of the same compound?
Answer: Its value is 20.830 mU/L * h.

Question: What about the “AUC t-inf_pred” value ([3]; 0.347 mg) of the same compound?
Answer: The value was 17.497 mU/L * h.

Question: And the “AUC(0-t)” value ([3]; 0.347 mg)?
Answer: The value was 782.648 mU/L * h.

Question: And the C0 ([3]; 0.347 mg)?
Answer: Its C0 is 105.903 mU/L.

Question: And the Cmax ([3]; 0.347 mg)?
Answer: Its Cmax is 998.596 mU/L.

Question: And the “MRT 0-inf_obs” value ([3]; 0.347 mg)?
Answer: Its value is 1.532 h.

Question: And the “MRT 0-inf_pred” value ([3]; 0.347 mg)?
Answer: The value was 1.471 h.

Question: What about the “MRT 0-t” value ([3]; 0.347 mg) of the same compound?
Answer: The value was 1.143 h.

Question: What about the Tmax ([3]; 0.347 mg) of the same compound?
Answer: The Tmax was 4.8 min.

Question: And the Vss_obs ([3]; 0.347 mg)?
Answer: Its Vss_obs is 0.001 (mg)/(mU/L).

Question: What about the Vss_pred ([3]; 0.347 mg) of the same compound?
Answer: Its Vss_pred is 0.001 (mg)/(mU/L).

Question: What about the Vz_obs ([3]; 0.347 mg) of the same compound?
Answer: The Vz_obs was 0.002 (mg)/(mU/L).

Question: And the Vz_pred ([3]; 0.347 mg)?
Answer: Its Vz_pred is 0.002 (mg)/(mU/L).

Question: And the t½ ([3]; 0.347 mg)?
Answer: The t½ was 2.873 h.
